According to the supplement of paper PMC7877785:
± gives the uncertainty stated by the source.

Experiment: self-splicing fitness, log relative to wild type (ln ratio); higher = more splicing; Tetrahymena group I intron in knt gene, E. coli kanamycin selection, DiMSum; sequences stand for … in CUCUCU…GGAGGGAAAAGUUAUCAGGCAUGCACCUGGUAGCUAGUCUUUAAACCAAUAGAUUGCAUCGGUUUAAAAGGCAAGACCGUCAAAUUGCGGGAAAGGGGUCAACAGCCGUUCAGUACCAAGUCUCAGGGGAAACUUUGAGAUGGCCUUGCAAAGGGUAUGGUAAUAAGCUGACGGACAUGGUCCUAACCACGCAGCCAAGUCCUAAGUCAACAGAUCUUCUGUUGAUAUGGAUGCAGUUCACAGACUAAAUGUCGGUCGGGGAAGAUGUAUUCUUCUCAUAAGAUAUAGUCGGACCUCUCCUUAAUGGGAGCUAGCGGAUGAAGUGAUGCAACACUGGAGCCGCUGGGAACUAAUUUGUAUGCGAAAGUAUAUUGAUUAGUUUUGGAGUACUCGUGGUCG
Method in brief: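 A randomised library covering all eight P1ex-region intron nucleotides was built with the intron in the knt kanamycin-resistance gene on pET-22b(+) and held in E. coli BL21(DE3). Cells were grown overnight at 37°C or 30°C on LB agar, with or without 25 μg/mL kanamycin, plus 100 μg/mL carbenicillin, 50 μM IPTG and 0.2% rhamnose, and pooled colonies were amplicon-sequenced on an Illumina HiSeq 2500. DiMSum fitness is the error-weighted combination of wild-type-normalised replicate fold changes, kanamycin versus none.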

Row | Sequence | self-splicing fitness (ln) (30 °C) | self-splicing fitness (ln) (37 °C)
1 | UAACAGCAAUAUUACGGGCA | -0.826 ± 0.085 | -0.324 ± 0.078
2 | CGGGAGCAAUAUUACGGUUG | -1.89 ± 0.44 | 
3 | UGAAAGCAAUAUUACGUUGU | -4.1 ± 0.22 | -2.04 ± 0.12
4 | GCCCAGCAAUAUUACGGUAA | -0.279 ± 0.06 | 0.44 ± 0.068
5 | ACAAAGCAAUAUUACGCGUU | -3.19 ± 0.1 | -2.69 ± 0.14
6 | CCGAAGCAAUAUUACGGCCU | -3.94 ± 0.36 | -2.02 ± 0.33
7 | UAGCAGCAAUAUUACGAUCG | -0.76 ± 0.093 | -0.0334 ± 0.12
8 | AGGUAGCAAUAUUACGAGCA | -1.33 ± 0.019 | -0.51 ± 0.034
9 | AGGUAGCAAUAUUACGGACA | -0.694 ± 0.017 | -0.397 ± 0.034
10 | AGAUAGCAAUAUUACGGAGA | -1.91 ± 0.18 | -2.76 ± 0.38
11 | GUAAAGCAAUAUUACGUGUC | -1.85 ± 0.06 | -1.14 ± 0.079
12 | CAUAAGCAAUAUUACGCAUG | -1.55 ± 0.12 | -2.27 ± 0.23
13 | UCUCAGCAAUAUUACGCAUU | -0.39 ± 0.11 | -1.55 ± 0.15
14 | ACACAGCAAUAUUACGACUC | -0.737 ± 0.063 | -0.631 ± 0.072
15 | GACUAGCAAUAUUACGAUUC | -0.598 ± 0.065 | -0.35 ± 0.072
16 | CGCGAGCAAUAUUACGGUCA | -2.23 ± 0.17 | -1.63 ± 0.15
17 | CCGCAGCAAUAUUACGAGUA | -3.31 ± 0.24 | -2.82 ± 0.28
18 | CGAAAGCAAUAUUACGGCGC | -1.14 ± 0.13 | -0.908 ± 0.15
19 | UUCAAGCAAUAUUACGUAAC |  | -2.22 ± 0.42
20 | AAUUAGCAAUAUUACGUUGG | -3.34 ± 0.17 | -2.56 ± 0.16
21 | UUUAAGCAAUAUUACGGCCC | 0.344 ± 0.32 | 
22 | UGGUAGCAAUAUUACGGACG | 1.33 ± 0.17 | 0.34 ± 0.19
23 | UAAAAGCAAUAUUACGGAGA | -2.31 ± 0.27 | -1.83 ± 0.27
24 | UAAAAGCAAUAUUACGCUUA | -1.53 ± 0.11 | -1.03 ± 0.12
25 | GCCCAGCAAUAUUACGGAUG | -2.15 ± 0.075 | -1.49 ± 0.092
26 | CAGCAGCAAUAUUACGACUA | -0.351 ± 0.068 | 0.43 ± 0.081

Row | Sequence | self-splicing fitness (ln) (30 °C) | self-splicing fitness (ln) (37 °C)
27 | GGCUAGCAAUAUUACGCUCU | -2.35 ± 0.31 | -0.975 ± 0.19
28 | GGCGAGCAAUAUUACGGACG | -0.223 ± 0.1 | -0.489 ± 0.21
29 | UGGCAGCAAUAUUACGGCGG | -0.882 ± 0.11 | 0.549 ± 0.15
30 | CGACAGCAAUAUUACGCGAG | -1.5 ± 0.16 | -2.32 ± 0.21
31 | AUGGAGCAAUAUUACGUAAU | -0.694 ± 0.15 | -0.189 ± 0.12
32 | AUUCAGCAAUAUUACGCCUC | -1.43 ± 0.15 | 0.286 ± 0.16
33 | AGACAGCAAUAUUACGCAGC | -2.72 ± 0.23 | -2.19 ± 0.39
34 | AAGUAGCAAUAUUACGAUAG | -2.72 ± 0.16 | -2.64 ± 0.36
35 | CGCAAGCAAUAUUACGGGAU | -4.29 ± 0.26 | -2.95 ± 0.23
36 | UGGAAGCAAUAUUACGCCCC | -1.69 ± 0.41 | -1.36 ± 0.35
37 | GGCCAGCAAUAUUACGUCGU | -1.18 ± 0.061 | -0.452 ± 0.072
38 | GAAGAGCAAUAUUACGAACU | -1.43 ± 0.15 | -0.479 ± 0.17
39 | CCGCAGCAAUAUUACGCCCU | -3.34 ± 0.47 | 0.196 ± 0.3
40 | GAUGAGCAAUAUUACGGAGC | -3.9 ± 0.3 | -0.441 ± 0.13
41 | UCGAAGCAAUAUUACGACGA | -0.904 ± 0.12 | -0.374 ± 0.11
42 | UUUAAGCAAUAUUACGUGUG | -1.24 ± 0.096 | -0.602 ± 0.093
43 | CUCGAGCAAUAUUACGCGAC |  | -0.0316 ± 0.34
44 | UCCAAGCAAUAUUACGCUCU | -3.44 ± 0.28 | -1.75 ± 0.18
45 | GAACAGCAAUAUUACGUGGG | -3.42 ± 0.11 | -1.9 ± 0.091
46 | ACAUAGCAAUAUUACGCUUA | -1.76 ± 0.19 | -1.55 ± 0.17
47 | GACAAGCAAUAUUACGUUAU | -3.17 ± 0.11 | -1.5 ± 0.095
48 | CCGUAGCAAUAUUACGAUCG | 0.0338 ± 0.098 | 0.353 ± 0.12
49 | GCUCAGCAAUAUUACGUUAC | -1.56 ± 0.12 | -1.65 ± 0.14
50 | AGAUAGCAAUAUUACGGAGC | -3.24 ± 0.29 | -1.5 ± 0.28
51 | UGUCAGCAAUAUUACGGCAA | -0.754 ± 0.075 | -0.0955 ± 0.098
52 | UGUAAGCAAUAUUACGAAUA | -0.825 ± 0.21 | -0.536 ± 0.23

Row | Sequence | self-splicing fitness (ln) (30 °C) | self-splicing fitness (ln) (37 °C)
53 | ACCGAGCAAUAUUACGAUUA | -2.31 ± 0.17 | -3.01 ± 0.25
54 | CUAGAGCAAUAUUACGAAAG | -0.33 ± 0.092 | 0.557 ± 0.12
55 | UAUCAGCAAUAUUACGAGUU | -2.58 ± 0.1 | -0.829 ± 0.089
56 | GGACAGCAAUAUUACGCUUU | -1.39 ± 0.065 | -0.538 ± 0.087
57 | AAUAAGCAAUAUUACGGGUU | -2.37 ± 0.13 | -1.43 ± 0.16
58 | CUCUAGCAAUAUUACGCUAU | -3.8 ± 0.39 | -2.79 ± 0.3
59 | GGAUAGCAAUAUUACGUUCA | -0.502 ± 0.1 | -0.00255 ± 0.15
60 | GAAAAGCAAUAUUACGACCA | -0.386 ± 0.13 | 0.235 ± 0.19
61 | AUACAGCAAUAUUACGUCCG | -1.75 ± 0.13 | -1.38 ± 0.17
62 | GUUAAGCAAUAUUACGUAGA | -3.06 ± 0.16 | -0.537 ± 0.12
63 | UCGUAGCAAUAUUACGUAUU | -3.9 ± 0.28 | -0.594 ± 0.14
64 | CAACAGCAAUAUUACGGCUU | -1.88 ± 0.082 | -0.875 ± 0.087
65 | CAGAAGCAAUAUUACGCUAC | -0.828 ± 0.41 | 
66 | GACCAGCAAUAUUACGGACC | -2.21 ± 0.17 | -2.38 ± 0.33
67 | GGGCAGCAAUAUUACGCUAG | -1.86 ± 0.078 | -0.741 ± 0.11
68 | AUCGAGCAAUAUUACGAUGC | -2.77 ± 0.47 | -1.77 ± 0.42
69 | CCAAAGCAAUAUUACGAAGU | -3.04 ± 0.15 | -2.42 ± 0.2
70 | UGUGAGCAAUAUUACGAUCA | -0.397 ± 0.23 | -0.874 ± 0.32
71 | ACAUAGCAAUAUUACGUACU | -0.24 ± 0.077 | 0.46 ± 0.12
72 | GGUCAGCAAUAUUACGUAAG | -1.87 ± 0.15 | -0.22 ± 0.18
73 | GUGCAGCAAUAUUACGGCGA | -0.548 ± 0.064 | 0.119 ± 0.092
74 | GUCAAGCAAUAUUACGCCUC | -1.25 ± 0.25 | 0.644 ± 0.41
75 | UUGCAGCAAUAUUACGAAAC | -3.32 ± 0.41 | -1.87 ± 0.45
76 | GCGCAGCAAUAUUACGACUA | -0.643 ± 0.12 | 0.154 ± 0.11
